Results: the DeepSol protein solubility set

Test: soluble on expression in E. coli; label from the status in PepcDB or PDB records

Sequence	soluble on expression in E. coli
MGSDKIHHHHHHMERTNTTTFKFFSLGGSNEVGRSCHILQYKGKTVMLDAGIHPAYQGLASLPFYDEFDLSKVDILLISHFHLDHAASLPYVMQRTNFQGRVFMTHPTKAIYRWLLRDFVRVTSIGSSSSSMGTKDEGLFSDEDLVDSFDKIETVDYHSTVDVNGIKFTAFHAGHVLGAAMFQIEIAGLRVLFTGDYSREVDRHLNSAEVPPLSSNVLIVESTFGTATHEPRLNRERKLTQLIHSTVMRGGRVLLPVFALGRAQEIMLILDEYWSQHADELGGGQVPIFYASNLAKKCMSVFQTYVNMMNDDIRKKFRDSQTNPFIFKNISYLRNLEDFQDFGPSVMLASPGMLQSGLSRDLLERWCPEDKNLVLITGYSIEGTMAKFIMLEPDTIPSINNPEITIPRRCQVEEISFAAHVDFQENLEFIEKISAPNIILVHGEANPMGRLKSALLSNFASLKGTDNEVHVFNPRNCVEVDLEFQGVKVAKAVGNIVNEIYKEENVEIKEEIAAKIEPIKEENEDNLDSQAEKGLVDEEEHKDIVVSGILVSDDKNFELDFLSLSDLREHHPDLSTTILRERQSVRVNCKKELIYWHILQMFGEAEVLQDDDRVTNQEPKVKEESKDNLTNTGKLILQIMGDIKLTIVNTLAVVEWTQDLMNDTVADSIIAILMNVDSAPASVKLSSHSCDDHDHNNVQSNAQGKIDEVERVKQISRLFKEQFGDCFTLFLNKDEYASNKEETITGVVTIGKSTAKIDFNNMKILECNSNPLKGRVESLLNIGGNLVTPLC	not soluble
THVYNYDIPQDPESYVHRIGRTGRAGATGTSVTFVTNWEMDYLRDVEHLTKKRLLPMKPPTEEEAFAGRAAMAEQSIEELVQKTDVAKFEEQVDHLLEQHDAKTLVAALLNEVTKSDASEIKVKITPERPLPR	not soluble
MGNNQSGGPDARYGGPNDKAGLRRHRMMSETAKIAGQVLPNPDGGPPMIFDDGNEDKSGECPVVFRWSFTQNAQPRVVHIVGSWDNWQTRIPMVKSTNDFSTIIDLQPGQYEYKFQVDGSWVVDDNQGKAQDVHGNENNMINIQDSDFAVFEALDEDFQSSTAGEVLRGESESTKNHDTPNDRELEKLRSFTQEIPSMDMLRKAAGPPVIPPQLMQVLLNKETPESCDPNVLPEPNHVMLNHMYALSIKDSVMVLSSTQRYRKKFVTTLLYKPV	not soluble
MTSSIPFRSFNEKYECNDDDNFTYSSTEQKRIETMLFENYNSLVLEPFKTTSDEDLAELTIFRQKHASYLLRYLKNCPSSYATLDASRSWMCYWGVNALKILDAEIPNDVIENIIVFLKSCEHPEGGYGGGPGQLAHLAPTYAAVMCLVSLQKEEALRSINRVTLFNFLKKCKHESGGFYMHEGGEIDMRSAYCALATCEIVGLPMDEISNGVAEWIISCQSFEGGFGGEPYTEAHGGYTFCAVASLVLLNRFRLADMEGLLRWATRRQMRFEGGFQGRTNKLVDGCYSFWQGAIFPLLDGEMEREGRSLEKGLFEARMLEEYILVGCQSVHGGFKDKPDKPVDLYHTCYVLSGLSVAQKYSLARDGKILGGDVNMLAEINPVFNVTIASEQFAKEFFTSH	not soluble
GHHHHHHAIAENLYFQSEVSKANGTENNVEKFDAATQEATYLDEADVDAELEAMKKRLQEMEEEANRLKEVQEQSASEVPSSEEVDRRSVYVGNVDYGSTPEELQAHFKECGTINRVTILCDKFTGHPKGFAYIEFATEEGANNAVILNESLFRGRNLKVSIKRTNVPGISTTDRGRGRGFPRGIGFRGRGGLRGGFRGRGYHGFRGRGRMTPY	not soluble
MSLYKKYLLLGVSLCMLNACNESKSVSLEGSLDGIQADSIYLYQVDNEHYGSVKLIKSIAVTDGRFAYPTDSIQAGLYCFSLQNMERGEYLQQYANLFLEPKSMQLTLGKDKYDQLSLHATGSALQEQYEALQEAKYVAGNRMVLDSLDHMFYEAREKGDREEMERIREVSSPYYESASEQTRKLINGEIAKNKGSYFGLYLYYTYRFQNHTFNTVEEIDEARNFIGSFDEASRRSGIYVKMQEGLDKFARCATGSVAPAITGIDLKGNSVSLNDFKGKYVLVDFWFAGCSWCRKETPYLLKTYNAFKDKGFTIYGVSTDRREEDWKKAIEEDKSYWNQVLLQKDDVKDVLESYCIVGFPHIILVDPEGKIVAKELRGDDLYNTVEKFVNGAKEGHHHHHH	soluble
MNWRAASAPPRSSPGLTSTCSRAAHWRDRGGAAAHAVLANVPQGRTLRDDAADLGWKPNHKFKGKLILTAPDAMPVDLNGVTITIAGPLQDELQALQDMHDQWLRQRKADPTRPPASAMLAAFVDKSVPNLSSIVLLAECGGKTMLLTGDARGDKIIEGLETTGKLAKDETLHVDILKVPHHGSDNNMETSFFERVTADHYVFSGNGDYGNPERATLQMLLDARGVAEDFTIHLTYPIEEIDAGREADWVKQQAKEAGRAKPPKGGVRPDWSAEEQGLVAFFANNPELAAHLIDLLDKAVVLEHHHHHH	not soluble
